Test results taken from publication PMC8860610.

How the values were obtained:
[1] = target: yeast nucleosome (histone octamer on 147-bp Widom 601 DNA) (Saccharomyces cerevisiae) (UniProt P04911)
[2] = target: Tof1-Csm3 (full-length, CBP-tagged) (Saccharomyces cerevisiae) (UniProt P53840)
[3] = target: yeast nucleosome (histone octamer on 147-bp Widom 601 DNA) (Saccharomyces cerevisiae) (UniProt P04911); remark: listed apart in the source
[4] = target: yeast nucleosome (histone octamer on 147-bp Widom 601 DNA) (Saccharomyces cerevisiae) (UniProt P04911); remark: listed apart in the source

yeast nucleosome (histone octamer on 147-bp Widom 601 DNA) (Saccharomyces cerevisiae), sequence (P04911 whole entry, chain 1 of 4, other chains not shown): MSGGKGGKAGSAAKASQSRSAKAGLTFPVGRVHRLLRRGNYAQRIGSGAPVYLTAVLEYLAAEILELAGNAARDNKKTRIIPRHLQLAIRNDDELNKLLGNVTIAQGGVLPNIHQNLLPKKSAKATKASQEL
yeast nucleosome (histone octamer on 147-bp Widom 601 DNA) (Saccharomyces cerevisiae), sequence (P02293 whole entry, chain 2 of 4, other chains not shown, further chain): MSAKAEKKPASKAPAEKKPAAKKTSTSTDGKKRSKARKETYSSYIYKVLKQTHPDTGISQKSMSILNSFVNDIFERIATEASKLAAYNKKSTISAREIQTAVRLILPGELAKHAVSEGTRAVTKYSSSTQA
Tof1-Csm3 (full-length, CBP-tagged) (Saccharomyces cerevisiae), sequence (P53840 whole entry, chain 1 of 2): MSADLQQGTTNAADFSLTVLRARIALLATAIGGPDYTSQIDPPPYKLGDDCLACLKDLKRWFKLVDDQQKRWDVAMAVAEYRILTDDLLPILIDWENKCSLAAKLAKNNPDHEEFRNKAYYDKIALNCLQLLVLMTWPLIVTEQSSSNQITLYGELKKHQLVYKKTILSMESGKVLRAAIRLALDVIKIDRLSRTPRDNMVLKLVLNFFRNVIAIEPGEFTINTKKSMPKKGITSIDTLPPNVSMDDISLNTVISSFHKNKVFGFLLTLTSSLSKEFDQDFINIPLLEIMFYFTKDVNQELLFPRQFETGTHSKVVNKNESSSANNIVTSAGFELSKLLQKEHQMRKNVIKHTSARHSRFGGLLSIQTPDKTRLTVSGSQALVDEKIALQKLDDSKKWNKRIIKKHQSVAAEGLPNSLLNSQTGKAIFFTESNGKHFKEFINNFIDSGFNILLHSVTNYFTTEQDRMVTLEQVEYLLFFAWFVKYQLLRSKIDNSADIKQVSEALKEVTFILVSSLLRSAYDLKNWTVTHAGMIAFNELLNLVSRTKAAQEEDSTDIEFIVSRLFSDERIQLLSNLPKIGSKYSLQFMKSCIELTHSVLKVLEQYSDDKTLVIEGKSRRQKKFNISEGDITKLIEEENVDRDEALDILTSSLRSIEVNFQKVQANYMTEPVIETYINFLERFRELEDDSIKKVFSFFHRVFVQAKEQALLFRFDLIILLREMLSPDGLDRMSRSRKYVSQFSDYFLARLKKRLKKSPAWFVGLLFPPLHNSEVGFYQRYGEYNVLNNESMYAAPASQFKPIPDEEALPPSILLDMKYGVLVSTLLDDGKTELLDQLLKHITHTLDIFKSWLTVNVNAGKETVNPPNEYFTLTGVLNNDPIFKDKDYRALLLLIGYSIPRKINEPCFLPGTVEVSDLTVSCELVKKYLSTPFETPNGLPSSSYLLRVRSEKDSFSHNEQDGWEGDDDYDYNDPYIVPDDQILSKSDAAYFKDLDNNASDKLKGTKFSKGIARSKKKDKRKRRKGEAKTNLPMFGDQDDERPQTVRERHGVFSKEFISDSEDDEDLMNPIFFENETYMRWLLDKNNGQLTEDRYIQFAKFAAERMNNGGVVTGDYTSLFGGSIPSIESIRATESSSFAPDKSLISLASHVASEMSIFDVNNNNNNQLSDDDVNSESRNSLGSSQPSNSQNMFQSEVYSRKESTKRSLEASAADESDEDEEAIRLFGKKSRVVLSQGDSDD
Tof1-Csm3 (full-length, CBP-tagged) (Saccharomyces cerevisiae), sequence (Q04659 whole entry, chain 2 of 2, further chain): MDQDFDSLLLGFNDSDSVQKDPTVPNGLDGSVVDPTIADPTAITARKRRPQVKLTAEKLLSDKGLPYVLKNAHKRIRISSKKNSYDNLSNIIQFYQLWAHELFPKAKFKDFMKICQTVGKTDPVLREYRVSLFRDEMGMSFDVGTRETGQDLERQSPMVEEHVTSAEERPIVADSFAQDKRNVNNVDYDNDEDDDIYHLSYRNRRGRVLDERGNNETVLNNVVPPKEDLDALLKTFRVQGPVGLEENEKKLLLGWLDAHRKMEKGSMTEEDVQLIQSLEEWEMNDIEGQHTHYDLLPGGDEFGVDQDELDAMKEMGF

Row | nucleosome reorganization, loss of FRET (%), with Nhp6 [1] [%] | decrease in in vitro chromatin replication (leading-strand length), 50 nM SΔN-P against 50 nM fl FACT, 20 nM fl Tof1-Csm3; restored by 4- and 8-fold excess of SΔN-P [2] [%] | reduction of the nucleosome reorganization activity of yFACT (single-molecule FRET) when Tof1-Csm3 is added [3] [%] | nucleosome reorganization, loss of FRET (%) of Cy3/Cy5-labelled nucleosomal DNA, FACT together with Nhp6 (yFACT); nucleosome alone 9.23 [4] [%] | nucleosome reorganization, loss of FRET (%) of Cy3/Cy5-labelled nucleosomal DNA, FACT without Nhp6; nucleosome alone 9.23 [4] [%] | Substance
1 | 63 | – | – | – | – | S-PΔC (FACT lacking the C-terminus of Pob3) (from UniProt P32558 1-1035; Q04636 1-552) (complex)
2 | 46.8 | – | – | – | – | SΔC-P (FACT lacking the C-terminus of Spt16) (from UniProt P32558 1-1035; Q04636 1-552) (complex)
3 | 65 | 58 | – | – | – | SΔN-P (FACT lacking the N-terminus of Spt16) (from UniProt P32558 1-1035; Q04636 1-552) (complex)
4 | – | – | 53 | 72.1 | 10.5 | full-length (fl) FACT (Spt16-Pob3) (from UniProt P32558 1-1035; Q04636 1-552) (complex)
